In US20250188130A1:

Target: E glycoprotein of DENV2-FL-Mature (fusion loop N103S and G106L), on virus (Dengue virus serotype 2, strain S16803 (engineered)) (UniProt P18356)
Test: cell-based or functional assay

For 1M7 (antibody), the neutralization (FRNT, EC50) (logs (reduction against DENV2)) was 2.
